Kd and ECM binding ratio (standard = 1) (ratio to standard antibody) data for 12 molecules are collected here from patent publication US20170267783A1 (published 2017).

Substitutions are numbered along the chain they refer to.

First the molecules themselves.
B1: TR01H002-E22Hh/GLS3108-k0/GL4-E22Hk/H0000-E22L (bispecific antibody, human IgG1, kappa, L234A L235A, N297A)
heavy 1: QVQLVESGGGVVQPGRSLRLSCAASGFTFSNAWMHWVRQAPGKGLEWVAQIKAKSNNYKKYYAESVKGRFTISRDDSKNSLYLQMNSLKTEDTAVYYCRYVHYYYYYGVQAWGQGTTVTVSSASTKGPSVFPLAPSSKSTSGGTAALGCLVKDYFPEPVTVSWNSGALTSGVHTFPAVLQSSGLYSLSSVVTVPSSSLGTQTYICNVNHKPSNTKVDKKVEPKSCDKTHTCPPCPAPEAAGGPSVFLFPPKPKDTLMISRTPEVTCVVVDVSHEDPEVKFNWYVDGVEVHNAKTKPREEQYASTYRVVSVLTVLHQDWLNGKEYKCKVSNKALPAPIEKTISKAKGQPREPQVYTLPPSRCELTKNQVSLSCAVKGFYPSDIAVEWESNGQPENNYKTTPPVLDSDGSFFLVSKLTVDKSRWQQGNVFSCSVMHEALHNHYTQKSLSLSPDYKDDDDK
light 1: DIVMTQSPLSLPVTPGEPASISCRSSQSLVHSNRNTYLSWYQQKPGQAPRLLIYKVSNRFSGVPDRFSGSGSGTDFTLKISRVEAEDVGVYYCGQGTQVPYTFGQGTKLEIKRTVAAPSVFIFPPSDEQLKSGTASVVCLLNNFYPREAKVQWKVDNALQSGNSQESVTEQDSKDSTYSLSSTLTLSKADYEKHKVYACEVTHQGLSSPVTKSFNRGEC
heavy 2: DIVMTQSPLSLPVTPGEPASISCRSSQSLVHSNRNTYLHWYQQKPGQAPRLLIYKVSNRFSGVPDRFSGSGSGTDFTLKISRVEAEDVGVYYCSQNTHVPPTFGQGTKLEIKSSASTKGPSVFPLAPSSKSTSGGTAALGCLVKDYFPEPVTVSWNSGALTSGVHTFPAVLQSSGLYSLSSVVTVPSSSLGTQTYICNVNHKPSNTKVDKKVEPKSCDKTHTCPPCPAPEAAGGPSVFLFPPKPKDTLMISRTPEVTCVVVDVSHEDPEVKFNWYVDGVEVHNAKTKPREEQYASTYRVVSVLTVLHQDWLNGKEYKCKVSNKALPAPIEKTISKAKGQPREPQVCTLPPSRDELTKNQVSLWCLVKGFYPSDIAVEWESNGQPENNYKTTPPVLDSDGSFFLYSKLTVDKSRWQQGNVFSCSVMHEALHNHYTQKSLSLSPHHHHHHHH
light 2: QVQLVQSGAEVKKPGASVKVSCKASGYTFTDYEMHWIRQPPGQGLEWIGAIDPKTGDTAYSQKFKGRVTLTADKSTSTAYMELSSLTSEDTAVYYCTRFYSYTYWGQGTLVTVSSASVAAPSVFIFPPSDEQLKSGTASVVCLLNNFYPREAKVQWKVDNALQSGNSQESVTEQDSKDSTYSLSSTLTLSKADYEKHKVYACEVTHQGLSSPVTKSFNRGEC
notes: CD3 arm + GPC3 arm with VH/VL exchanged
B2: TR01H084-E2702GsKsc/GCH094-E2704sEpsc/L0011-k0 (bispecific antibody, human IgG4 S228P, kappa, N297A)
heavy 1: QVQLVESGGGVVQPGGSLRLSCAASGFTFSNAWMHWVRQAPGKGLEWVAQIKDKSQNYATYYAESVKGRFTISRADSKNSIYLQMNSLKTEDTAVYYCRYVHYAAGYGVDIWGQGTTVTVSSASTKGPSVFPLAPCSRSTSESTAALGCLVKDYFPEPVTVSWNSGALTSGVHTFPAVLQSSGLYSLSSVVTVPSSSLGTKTYTCNVDHKPSNTKVDKRVESKYGPPCPPCPAPEFRGGPKVFLFPPKPKDTLMISRTPEVTCVVVDVSQEDPEVQFNWYVDGVEVHNAKTKPREEQFASTYRVVSVLTVLHQDWLNGKEYKCKVSNKGLPSSIEKTISKAKGQPREPQVYTLPPSQKEMTKNQVSLTCLVKGFYPSDIAVEWESNGQPENNYKTTPPVLDSDGSFFLYSKLTVDKSRWQEGNVFSCSVMHEALHNRYTQKSLSLSP
heavy 2: QVQLVQSGAEVKKPGASVTVSCKASGYTFTDYEMHWVRQAPGEGLEWMGAIDGETPDTAYSEKFKGRVTLTADKSTSTAYMELSSLTSEDTAVYYCTRFYSYTYWGQGTLVTVSSASTKGPSVFPLAPCSRSTSESTAALGCLVKDYFPEPVTVSWNSGALTSGVHTFPAVLQSSGLYSLSSVVTVPSSSLGTQTYTCNVDHKPSNTKVDKRVESKYGPPCPPCPAPEFRGGPKVFLFPPKPKDTLMISRTPEVTCVVVDVSQEDPEVQFNWYVDGVEVHNAKTKPREEQFASTYRVVSVLTVLHQDWLNGKEYKCKVSNKGLPSSIEKTISKAKGQPREPQVYTLPPSQEEMTKNQVSLTCLVKGFYPSDIAVEWESNGQPENNYKTTPPVLDSDGSFFLYSKLTVDKSRWQEGNVFSCSVMHEALHNHYTQESLSLSP
light: B1 light 1 with S28P, S39H
B3: TR01H109-E2702GsKsc/GCH094-E2704sEpsc/L0011-k0 (bispecific antibody, human IgG4 S228P, kappa, N297A)
heavy 1: B2 heavy 1 with V11L, G16R, Y62V, A75D, I81L, I111A
heavy 2: B2 heavy 2
light: B1 light 1 with S28P, S39H
B4: TR01H082-E2702GsKsc/GCH094-E2704sEpsc/L0011-k0 (bispecific antibody, human IgG4 S228P, kappa, N297A)
heavy 1: B2 heavy 1 with V11L, G16R, A75D, I81L, I111A
heavy 2: B2 heavy 2
light: B1 light 1 with S28P, S39H
B5: TR01H040-E2702GsKsc/H0610-E2704sEpsc/L0203-k0 (bispecific antibody, human IgG4 S228P, kappa, N297A)
heavy 1: B2 heavy 1 with V11L, G16R, A104S, G106S, I111A
heavy 2: B2 heavy 2 with T19K, V37I, A40P, E43Q, M48I, E54K, E62Q
light: B1 light 1 with L29P, L38I, S39H
B6: TR01H067-E2702GsKsc/GCH054-E2704sEpsc/L0222-k0 (bispecific antibody, human IgG4 S228P, kappa, N297A)
heavy 1: B2 heavy 1 with V11L, G16R, A75D, I81L, G106S, I111A
heavy 2: B2 heavy 2 with V37I, A40P, M48I
light: B1 light 1 with L29P, L38I, S39Q, G94Y
B7: TR01H113-E2702sKsc/GCH065-E2704sEpsc/L0011-k0 (bispecific antibody, human IgG4 S228P, kappa, N297A)
heavy 1: B2 heavy 1 with Y62V, R437H
heavy 2: B2 heavy 2 with V37I, A40P, M48I, E54P
light: B1 light 1 with S28P, S39H
B8: TR01H067-E2702GsKsc/GCH054-E2704sEpsc/L0201-k0 (bispecific antibody, human IgG4 S228P, kappa, N297A)
heavy 1: B2 heavy 1 with V11L, G16R, A75D, I81L, G106S, I111A
heavy 2: B2 heavy 2 with V37I, A40P, M48I
light: B1 light 1 with S28P, L29P, S39H
B9: TR01H082-E2702GsKsc/GCH094-E2704sEpsc/L0201-k0 (bispecific antibody, human IgG4 S228P, kappa, N297A)
heavy 1: B2 heavy 1 with V11L, G16R, A75D, I81L, I111A
heavy 2: B2 heavy 2
light: B1 light 1 with S28P, L29P, S39H
B10: TR01H040-E2702GsKsc/H0610-E2704sEpsc/L0000-k0 (bispecific antibody, human IgG4 S228P, kappa, N297A)
heavy 1: B2 heavy 1 with V11L, G16R, A104S, G106S, I111A
heavy 2: B2 heavy 2 with T19K, V37I, A40P, E43Q, M48I, E54K, E62Q
light: B1 light 1 with S39H
B11: TR01H109-E2702GsKsc/GCH065-E2704sEpsc/L0011-k0 (bispecific antibody, human IgG4 S228P, kappa, N297A)
heavy 1: B2 heavy 1 with V11L, G16R, Y62V, A75D, I81L, I111A
heavy 2: B2 heavy 2 with V37I, A40P, M48I, E54P
light: B1 light 1 with S28P, S39H
B12: TR01H040-E2702GsKsc/H0610-E2704sEpsc/L0201-k0 (bispecific antibody, human IgG4 S228P, kappa, N297A)
heavy 1: B2 heavy 1 with V11L, G16R, A104S, G106S, I111A
heavy 2: B2 heavy 2 with T19K, V37I, A40P, E43Q, M48I, E54K, E62Q
light: B1 light 1 with S28P, L29P, S39H

T1 sequence (P07766 23-126 limits assumed): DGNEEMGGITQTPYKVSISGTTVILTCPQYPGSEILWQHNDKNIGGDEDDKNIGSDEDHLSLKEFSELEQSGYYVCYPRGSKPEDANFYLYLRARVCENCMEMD

One assay concerns the target T1, soluble human CD3ε chain (human, UniProt P07766 23-126).
T1 construct: also called CD3 epsilon
Description: SPR (Biacore). (In general: In SPR one partner is held on a chip, and binding of the other changes the refractive index at the surface.)
For orientation: Kd means the constant that tells how readily two partners part at equilibrium. A low value points to higher affinity. For the molecule B1, the Kd was 4.76 nM. This lies in the single-digit nanomolar range.

For the next assay, the target named is extracellular matrix (ECM; BD Matrigel). Briefly: ECL on Matrigel-coated plate, signal divided by that of MRAH-G1d/MRAL-k0.
Turning to B2, the ECM binding ratio (standard = 1) (ratio to standard antibody) was found to be 1.2.

As to B3, the ECM binding ratio (standard = 1) (ratio to standard antibody) turned out to be 0.4.

Take B4: the ECM binding ratio (standard = 1) (ratio to standard antibody) is 0.7. Still for that read-out and setting: the result for B5 reads 0.8; that for B6, 0.6.

In the case of B7, the ECM binding ratio (standard = 1) (ratio to standard antibody) is 0.3. On to B8, for which the ECM binding ratio (standard = 1) (ratio to standard antibody) is 0.5.

With B9, the ECM binding ratio (standard = 1) (ratio to standard antibody) is 1.1. In the case of B10, the ECM binding ratio (standard = 1) (ratio to standard antibody) came out at 0.8. As for B11, the ECM binding ratio (standard = 1) (ratio to standard antibody) is 0.7. Still for that read-out and setting: the result for B12 reads 0.8.
